Laboratory results as given in patent US20200299408A1 (Genentech, published 2020).

T1: single chain human CD3ε-26mer-CD3γ (CD3εγ) (human)
T1 construct: also called human CD3εγ
T1 chain: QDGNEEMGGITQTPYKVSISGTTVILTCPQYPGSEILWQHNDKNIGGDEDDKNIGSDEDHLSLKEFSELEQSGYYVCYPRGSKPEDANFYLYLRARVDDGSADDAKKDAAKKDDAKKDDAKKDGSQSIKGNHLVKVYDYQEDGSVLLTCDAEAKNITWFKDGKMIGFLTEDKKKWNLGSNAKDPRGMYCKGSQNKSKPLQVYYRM


Biological target: T1, single chain human CD3ε-26mer-CD3γ …
Assay: Biacore, human CD3εγ on chip, Fab in flow through
Description: Binding affinities for the each of the CD3/CD20 TDBs were tested by Biacore or FACS analysis, as described above for the anti-CD3 antibodies. Briefly, for Biacore binding assays, human CD3εγ was immobilized on Biacore Series S CM5 sensor chip using the amine coupling kit from Biacore and CD3/CD20 TDBs or Fab variants thereof were in the flow through. For FACS binding assays, either Bjab cells (for B cell antigens) or Jurkat cells (for CD3 antigen) were incubated with various concentrations of TDB antibodies at 4° C. for 30 minutes, then cells were washed and incubated with 2nd antibody (anti-huIgG-PE; BD Bioscience) for another 15 minutes, before cells were washed again and ready for FACS analysis.

Binder	Kd [nM]	koff [s⁻¹]	kon [M⁻¹ s⁻¹]
40G5c Fab (Fab, V domains shown) VH: EVQLVQSGAEVKKPGASVKVSCKASGYTFTNYYIHWVRQAPGQGLEWIGWIYPGDGNTKYNEKFKGRATLTADTSTSTAYLELSSLRSEDTAVYYCARDSYSNYYFDYWGQGTLVTVSS VL: DIVMTQSPDSLAVSLGERATINCKSSQSLLNSRTRKNYLAWYQQKPGQPPKLLIYWASTRESGVPDRFSGSGSGTDFTLTISSLQAEDVAVYYCTQSFILRTFGQGTKVEIK	63.2	0.0253	401000
38E4v3 Fab (Fab, V domains shown) VH: EVQLVQSGAEVKKPGASVKVSCKASGFTFTSYYIHWVRQAPGQGLEWIGWIYPENDNTKYNEKFKDRVTITADTSTSTAYLELSSLRSEDTAVYYCARDGYSRYYFDYWGQGTLVTVSS VL: DIVMTQSPDSLAVSLGERATINCKSSQSLLNSRTRKNYLAWYQQKPGQSPKLLIYWTSTRKSGVPDRFSGSGSGTDFTLTISSLQAEDVAVYYCKQSFALRTFGQGTKVEIK	3.4	0.014	4.11e+06
38E4v8 Fab (Fab, V domains shown) VH: EVQLVQSGAEVKKPGASVKVSCKASGFTFTSYYIHWVRQAPGQGLEWIGWIYPENDNTKYNEKFKDRVTITADTSTSTAYLELSSLRSEDTAVYYCARSGYSRYYFDYWGQGTLVTVSS VL: DIVMTQSPDSLAVSLGERATINCKSSQSLLNSRTRKNYLAWYQQKPGQSPKLLIYWTSTRKSGVPDRFSGSGSGTDFTLTISSLQAEDVAVYYCKQSFILRTFGQGTKVEIK	180	0.202	1.12e+06
38E4v9 Fab (Fab, V domains shown) VH: EVQLVQSGAEVKKPGASVKVSCKASGFTFTSYYIHWVRQAPGQGLEWIGWIYPENDNTKYNEKFKDRVTITADTSTSTAYLELSSLRSEDTAVYYCARDGYSRAYFDYWGQGTLVTVSS VL: DIVMTQSPDSLAVSLGERATINCKSSQSLLNSRTRKNYLAWYQQKPGQSPKLLIYWTSTRKSGVPDRFSGSGSGTDFTLTISSLQAEDVAVYYCKQSFILRTFGQGTKVEIK	229	0.0166	72600
38E4v2 Fab (Fab, V domains shown) VH: EVQLVQSGAEVKKPGASVKVSCKASGFTFTSYYIHWVRQAPGQGLEWIGWIYPENDNTKYNEKFKDRVTITADTSTSTAYLELSSLRSEDTAVYYCARDAYSRYYFDYWGQGTLVTVSS VL: DIVMTQSPDSLAVSLGERATINCKSSQSLLNSRTRKNYLAWYQQKPGQSPKLLIYWTSTRKSGVPDRFSGSGSGTDFTLTISSLQAEDVAVYYCKQSFILRTFGQGTKVEIK	1.6	0.00359	2.29e+06
38E4v7 Fab (Fab, V domains shown) VH: EVQLVQSGAEVKKPGASVKVSCKASGFTFTSYYIHWVRQAPGQGLEWIGWIYPENDNTKYNEKFKDRVTITADTSTSTAYLELSSLRSEDTAVYYCARDGYSRYAFDYWGQGTLVTVSS VL: DIVMTQSPDSLAVSLGERATINCKSSQSLLNSRTRKNYLAWYQQKPGQSPKLLIYWTSTRKSGVPDRFSGSGSGTDFTLTISSLQAEDVAVYYCKQSFILRTFGQGTKVEIK	87	0.0246	283000
38E4v5 Fab (Fab, V domains shown) VH: EVQLVQSGAEVKKPGASVKVSCKASGFTFTSYYIHWVRQAPGQGLEWIGWIYPENDNTKYNEKFKDRVTITADTSTSTAYLELSSLRSEDTAVYYCARDGYSRYYFDYWGQGTLVTVSS VL: DIVMTQSPDSLAVSLGERATINCKSSQSLLNSRTRKNYLAWYQQKPGQSPKLLIYWTSTRKSGVPDRFSGSGSGTDFTLTISSLQAEDVAVYYCKQSAILRTFGQGTKVEIK	11	0.0225	2.05e+06
38E4v4 Fab (Fab, V domains shown) VH: EVQLVQSGAEVKKPGASVKVSCKASGFTFTSYYIHWVRQAPGQGLEWIGWIYPENDNTKYNEKFKDRVTITADTSTSTAYLELSSLRSEDTAVYYCARDGYSRYYFDYWGQGTLVTVSS VL: DIVMTQSPDSLAVSLGERATINCKSSQSLLNSRTRKNYLAWYQQKPGQSPKLLIYWTSTRKSGVPDRFSGSGSGTDFTLTISSLQAEDVAVYYCKASFILRTFGQGTKVEIK	10.3	0.00336	325000
38E4v6 Fab (Fab, V domains shown) VH: EVQLVQSGAEVKKPGASVKVSCKASGFTFTSYYIHWVRQAPGQGLEWIGWIYPENDNTKYNEKFKDRVTITADTSTSTAYLELSSLRSEDTAVYYCARTGYSRYYFDYWGQGTLVTVSS VL: DIVMTQSPDSLAVSLGERATINCKSSQSLLNSRTRKNYLAWYQQKPGQSPKLLIYWTSTRKSGVPDRFSGSGSGTDFTLTISSLQAEDVAVYYCKQSFILRTFGQGTKVEIK	34.2	0.00175	51100

Biological target: CD3 antigen of Figures 3B and 3C (not named)
Assay: kinetic table of IgGs; method and antigen not stated

Binder	Kd [nM]	koff [s⁻¹]	kon [M⁻¹ s⁻¹]
127B3 (antibody, IgG3, V domains shown, mouse hybridoma clone) VH: QVQLQQSGSELVRPGASLKLSCKASGYTFTSYWMHWVRQRPGQGLEWIGNFYPGDLTVNYDEKFKNKVTLAVDTSSSTAFLQLSSLTSEDSAVYYCTRDAYSRYFFDYWGQGTTLTVSS VL: DIVMTQSPSSLAVSAGEKVTMSCKSSQSLLNSRTRKNYLAWYQQKPGQSPKLLIYWASTRESGVPDRFTGSGSGTDFTLTISSVQTEDLAVYYCCQSFILRTFGGGTKLEIK	0.744	9.67e-05	130000

Biological target: T1, single chain human CD3ε-26mer-CD3γ …
Assay: Biacore, human CD3εγ on chip, antibody in flow-through

Binder	Kd [nM]	koff [s⁻¹]	kon [M⁻¹ s⁻¹]
38E4 v2 (antibody, V domains shown) VH: EVQLVQSGAEVKKPGASVKVSCKASGFTFTSYYIHWVRQAPGQGLEWIGWIYPENDNTKYNEKFKDRVTITADTSTSTAYLELSSLRSEDTAVYYCARDAYSRYYFDYWGQGTLVTVSS VL: DIVMTQSPDSLAVSLGERATINCKSSQSLLNSRTRKNYLAWYQQKPGQSPKLLIYWTSTRKSGVPDRFSGSGSGTDFTLTISSLQAEDVAVYYCKQSFILRTFGQGTKVEIK	1.6	0.0036	2.29e+06
38E4 v4 (antibody, V domains shown) VH: EVQLVQSGAEVKKPGASVKVSCKASGFTFTSYYIHWVRQAPGQGLEWIGWIYPENDNTKYNEKFKDRVTITADTSTSTAYLELSSLRSEDTAVYYCARDGYSRYYFDYWGQGTLVTVSS VL: DIVMTQSPDSLAVSLGERATINCKSSQSLLNSRTRKNYLAWYQQKPGQSPKLLIYWTSTRKSGVPDRFSGSGSGTDFTLTISSLQAEDVAVYYCKASFILRTFGQGTKVEIK	10	0.0034	325000
38E4 v8 (antibody, V domains shown) VH: EVQLVQSGAEVKKPGASVKVSCKASGFTFTSYYIHWVRQAPGQGLEWIGWIYPENDNTKYNEKFKDRVTITADTSTSTAYLELSSLRSEDTAVYYCARSGYSRYYFDYWGQGTLVTVSS VL: DIVMTQSPDSLAVSLGERATINCKSSQSLLNSRTRKNYLAWYQQKPGQSPKLLIYWTSTRKSGVPDRFSGSGSGTDFTLTISSLQAEDVAVYYCKQSFILRTFGQGTKVEIK	180	0.202	1.12e+06
38E4 v9 (antibody, V domains shown) VH: EVQLVQSGAEVKKPGASVKVSCKASGFTFTSYYIHWVRQAPGQGLEWIGWIYPENDNTKYNEKFKDRVTITADTSTSTAYLELSSLRSEDTAVYYCARDGYSRAYFDYWGQGTLVTVSS VL: DIVMTQSPDSLAVSLGERATINCKSSQSLLNSRTRKNYLAWYQQKPGQSPKLLIYWTSTRKSGVPDRFSGSGSGTDFTLTISSLQAEDVAVYYCKQSFILRTFGQGTKVEIK	229	0.0166	72600
38E4 v3 (antibody, V domains shown) VH: EVQLVQSGAEVKKPGASVKVSCKASGFTFTSYYIHWVRQAPGQGLEWIGWIYPENDNTKYNEKFKDRVTITADTSTSTAYLELSSLRSEDTAVYYCARDGYSRYYFDYWGQGTLVTVSS VL: DIVMTQSPDSLAVSLGERATINCKSSQSLLNSRTRKNYLAWYQQKPGQSPKLLIYWTSTRKSGVPDRFSGSGSGTDFTLTISSLQAEDVAVYYCKQSFALRTFGQGTKVEIK	3.4	0.014	4.11e+06
38E4 v6 (antibody, V domains shown) VH: EVQLVQSGAEVKKPGASVKVSCKASGFTFTSYYIHWVRQAPGQGLEWIGWIYPENDNTKYNEKFKDRVTITADTSTSTAYLELSSLRSEDTAVYYCARTGYSRYYFDYWGQGTLVTVSS VL: DIVMTQSPDSLAVSLGERATINCKSSQSLLNSRTRKNYLAWYQQKPGQSPKLLIYWTSTRKSGVPDRFSGSGSGTDFTLTISSLQAEDVAVYYCKQSFILRTFGQGTKVEIK	34	0.0017	51100
38E4 v5 (antibody, V domains shown) VH: EVQLVQSGAEVKKPGASVKVSCKASGFTFTSYYIHWVRQAPGQGLEWIGWIYPENDNTKYNEKFKDRVTITADTSTSTAYLELSSLRSEDTAVYYCARDGYSRYYFDYWGQGTLVTVSS VL: DIVMTQSPDSLAVSLGERATINCKSSQSLLNSRTRKNYLAWYQQKPGQSPKLLIYWTSTRKSGVPDRFSGSGSGTDFTLTISSLQAEDVAVYYCKQSAILRTFGQGTKVEIK	11	0.0225	2.05e+06
38E4 v7 (antibody, V domains shown) VH: EVQLVQSGAEVKKPGASVKVSCKASGFTFTSYYIHWVRQAPGQGLEWIGWIYPENDNTKYNEKFKDRVTITADTSTSTAYLELSSLRSEDTAVYYCARDGYSRYAFDYWGQGTLVTVSS VL: DIVMTQSPDSLAVSLGERATINCKSSQSLLNSRTRKNYLAWYQQKPGQSPKLLIYWTSTRKSGVPDRFSGSGSGTDFTLTISSLQAEDVAVYYCKQSFILRTFGQGTKVEIK	87	0.0246	283000
